Legend:
Assay in all cases: BioID-MS
[1] = biological target: AARS2 (human) (UniProt Q5JTZ9)
[2] = biological target: MTRF1 (human) (UniProt O75570)
[3] = biological target: MRM3 (human) (UniProt Q9HC36)
[4] = biological target: ECHS1 (human) (UniProt P30084)
[5] = biological target: HSD17B8 (human) (UniProt Q92506)
[6] = biological target: ACAT1 (human) (UniProt P24752)
[7] = biological target: K1AA0564 (human) (UniProt A3KMH1)
[8] = biological target: GPT2 (human) (UniProt Q8TD30)
[9] = biological target: NIPSNAP2 (human) (UniProt O75323)
[10] = biological target: GUF1 (human) (UniProt Q8N442)
[11] = biological target: SSBP1 (human) (UniProt Q04837)
SSBP1 (human), sequence (Q04837 17-148 limits assumed): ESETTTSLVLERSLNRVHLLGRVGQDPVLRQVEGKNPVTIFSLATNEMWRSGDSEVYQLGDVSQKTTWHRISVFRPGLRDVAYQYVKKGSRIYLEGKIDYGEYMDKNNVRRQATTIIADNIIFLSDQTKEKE

[12] = biological target: MRPS15 (human) (UniProt P82914)
[13] = biological target: VWA8 (human) (UniProt A3KMH1)
VWA8 (human), sequence (A3KMH1 29-1905 limits assumed): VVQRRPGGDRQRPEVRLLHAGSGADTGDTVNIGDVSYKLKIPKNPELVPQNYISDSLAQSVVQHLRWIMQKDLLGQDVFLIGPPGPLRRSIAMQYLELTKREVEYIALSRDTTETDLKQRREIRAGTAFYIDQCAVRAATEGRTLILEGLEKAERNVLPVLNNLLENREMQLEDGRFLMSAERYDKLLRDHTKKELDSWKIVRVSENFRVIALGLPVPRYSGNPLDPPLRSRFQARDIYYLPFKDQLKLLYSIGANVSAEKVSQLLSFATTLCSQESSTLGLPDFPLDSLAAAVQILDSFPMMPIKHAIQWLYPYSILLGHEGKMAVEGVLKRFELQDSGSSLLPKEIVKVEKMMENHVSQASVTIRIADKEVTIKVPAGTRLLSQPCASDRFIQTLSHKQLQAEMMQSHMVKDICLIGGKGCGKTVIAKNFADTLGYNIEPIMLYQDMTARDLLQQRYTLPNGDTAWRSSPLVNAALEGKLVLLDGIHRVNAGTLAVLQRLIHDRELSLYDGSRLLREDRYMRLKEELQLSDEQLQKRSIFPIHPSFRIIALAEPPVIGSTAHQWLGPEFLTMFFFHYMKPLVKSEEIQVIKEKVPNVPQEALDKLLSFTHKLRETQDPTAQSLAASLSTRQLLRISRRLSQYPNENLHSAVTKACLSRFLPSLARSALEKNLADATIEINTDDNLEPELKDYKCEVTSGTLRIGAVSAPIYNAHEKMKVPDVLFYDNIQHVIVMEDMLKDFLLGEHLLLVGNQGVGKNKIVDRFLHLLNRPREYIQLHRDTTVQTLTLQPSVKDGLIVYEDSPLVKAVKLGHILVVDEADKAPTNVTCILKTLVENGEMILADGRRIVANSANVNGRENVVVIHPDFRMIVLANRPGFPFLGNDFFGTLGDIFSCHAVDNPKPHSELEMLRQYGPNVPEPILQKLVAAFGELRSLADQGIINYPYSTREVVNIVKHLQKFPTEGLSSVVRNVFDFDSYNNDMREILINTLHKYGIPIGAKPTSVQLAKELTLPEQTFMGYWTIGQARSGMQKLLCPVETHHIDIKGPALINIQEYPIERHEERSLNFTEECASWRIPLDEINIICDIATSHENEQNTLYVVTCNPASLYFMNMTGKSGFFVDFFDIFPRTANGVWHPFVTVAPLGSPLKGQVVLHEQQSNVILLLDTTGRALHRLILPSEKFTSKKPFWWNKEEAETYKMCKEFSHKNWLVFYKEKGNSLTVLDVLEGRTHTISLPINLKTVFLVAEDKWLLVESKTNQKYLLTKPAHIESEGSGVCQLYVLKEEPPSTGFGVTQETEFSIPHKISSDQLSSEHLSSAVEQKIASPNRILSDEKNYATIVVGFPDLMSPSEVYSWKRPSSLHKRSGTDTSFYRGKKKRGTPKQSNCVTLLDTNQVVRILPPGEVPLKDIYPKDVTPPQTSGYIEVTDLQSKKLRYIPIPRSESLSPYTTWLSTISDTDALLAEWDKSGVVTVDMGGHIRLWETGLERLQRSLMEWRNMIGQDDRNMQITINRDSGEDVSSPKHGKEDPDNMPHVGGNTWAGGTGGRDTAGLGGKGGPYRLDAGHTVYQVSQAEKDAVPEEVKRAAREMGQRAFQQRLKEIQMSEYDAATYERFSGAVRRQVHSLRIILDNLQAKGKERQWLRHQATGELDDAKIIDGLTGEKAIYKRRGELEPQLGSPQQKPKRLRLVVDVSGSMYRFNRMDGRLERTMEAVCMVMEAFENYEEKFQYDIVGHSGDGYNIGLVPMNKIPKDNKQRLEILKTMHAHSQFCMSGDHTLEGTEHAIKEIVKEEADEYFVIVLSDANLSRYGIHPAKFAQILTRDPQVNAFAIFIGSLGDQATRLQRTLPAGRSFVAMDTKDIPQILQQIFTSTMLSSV

[14] = biological target: GBAS (human) (UniProt O75323)
[15] = biological target: ALDH1L2 (human) (UniProt Q3SY69)
[16] = biological target: ZADH2 (human) (UniProt Q8N4Q0)
[17] = biological target: MRPL10 (human) (UniProt Q7Z7H8)
[18] = biological target: MDH2 (human) (UniProt P40926)
[19] = biological target: CLYBL (human) (UniProt Q8N0X4)
CLYBL (human), sequence (Q8N0X4 23-340 limits assumed): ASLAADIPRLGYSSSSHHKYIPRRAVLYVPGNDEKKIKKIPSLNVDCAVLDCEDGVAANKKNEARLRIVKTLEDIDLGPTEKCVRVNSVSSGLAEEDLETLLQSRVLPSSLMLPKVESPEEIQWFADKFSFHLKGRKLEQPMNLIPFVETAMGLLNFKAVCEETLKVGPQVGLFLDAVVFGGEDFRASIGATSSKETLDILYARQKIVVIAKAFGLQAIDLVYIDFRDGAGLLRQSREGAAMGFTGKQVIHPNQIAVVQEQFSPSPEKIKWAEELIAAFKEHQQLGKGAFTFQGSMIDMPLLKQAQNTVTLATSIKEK

[20] = biological target: ACSS1 (human) (UniProt Q9NUB1)
[21] = biological target: MRPS16 (human) (UniProt Q9Y3D3)
[22] = biological target: RPS15A (human) (UniProt P62244)
[23] = biological target: SFXN4 (human) (UniProt Q6P4A7)
[24] = biological target: ACO2 (human) (UniProt Q99798)
[25] = biological target: MRPS6 (human) (UniProt P82932)
[26] = biological target: PDPR (human) (UniProt Q8NCN5)
[27] = biological target: MTIF2 (human) (UniProt P46199)
[28] = biological target: ACAA2 (human) (UniProt P42765)
[29] = biological target: MTRF1L (human) (UniProt Q9UGC7)
[30] = biological target: POLG (human) (UniProt P54098)
[31] = biological target: ERAL1 (human) (UniProt O75616)
[32] = biological target: NUBPL (human) (UniProt Q8TB37)
[33] = biological target: AIFM1 (human) (UniProt O95831)
[34] = biological target: GRPEL1 (human) (UniProt Q9HAV7)
[35] = biological target: NDUFS4 (human) (UniProt O43181)
[36] = biological target: GTPBP3 (human) (UniProt Q969Y2)
[37] = biological target: PDIA3 (human) (UniProt P30101)
[38] = biological target: VARS2 (human) (UniProt Q5ST30)
[39] = biological target: MTHFD2 (human) (UniProt P13995)
[40] = biological target: SUCLG1 (human) (UniProt P53597)
[41] = biological target: C7orf55 (human) (UniProt Q96HJ9)
C7orf55 (human), sequence (Q96HJ9 whole entry): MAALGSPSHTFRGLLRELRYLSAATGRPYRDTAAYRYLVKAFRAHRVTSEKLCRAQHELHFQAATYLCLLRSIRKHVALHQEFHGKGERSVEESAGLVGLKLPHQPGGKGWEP

[42] = biological target: NDUFV2 (human) (UniProt P19404)
NDUFV2 (human), sequence (P19404 33-249 limits assumed): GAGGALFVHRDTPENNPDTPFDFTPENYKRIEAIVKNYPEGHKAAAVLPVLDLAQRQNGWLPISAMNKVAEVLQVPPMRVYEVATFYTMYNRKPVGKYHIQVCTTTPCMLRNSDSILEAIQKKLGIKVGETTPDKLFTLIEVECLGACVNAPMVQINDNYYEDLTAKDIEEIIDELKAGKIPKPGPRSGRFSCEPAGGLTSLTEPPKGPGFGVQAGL

[43] = biological target: C20orf7 (human) (UniProt Q5TEU4)
C20orf7 (human), sequence (Q5TEU4 37-345 limits assumed): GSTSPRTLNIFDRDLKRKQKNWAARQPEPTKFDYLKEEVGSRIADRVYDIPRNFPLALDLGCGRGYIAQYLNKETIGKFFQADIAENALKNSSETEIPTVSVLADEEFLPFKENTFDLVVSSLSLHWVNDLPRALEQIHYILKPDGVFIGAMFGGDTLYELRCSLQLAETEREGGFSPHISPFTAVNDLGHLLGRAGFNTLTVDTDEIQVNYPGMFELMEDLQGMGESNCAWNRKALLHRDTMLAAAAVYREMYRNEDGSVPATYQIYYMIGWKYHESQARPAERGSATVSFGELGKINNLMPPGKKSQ

[44] = biological target: NUDT1 (human) (UniProt P36639)
[45] = biological target: MRPL48 (human) (UniProt Q96GC5)
[46] = biological target: MRRF (human) (UniProt Q96E11)
[47] = biological target: MRPL54 (human) (UniProt Q6P161)
[48] = biological target: THEM4 (human) (UniProt Q5T1C6)
THEM4 (human), sequence (Q5T1C6 37-240 limits assumed): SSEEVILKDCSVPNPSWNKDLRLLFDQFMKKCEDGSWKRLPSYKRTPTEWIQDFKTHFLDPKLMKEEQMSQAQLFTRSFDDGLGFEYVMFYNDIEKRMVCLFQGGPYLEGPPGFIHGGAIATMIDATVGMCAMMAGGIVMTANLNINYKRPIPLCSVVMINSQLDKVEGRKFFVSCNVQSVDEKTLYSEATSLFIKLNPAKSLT

[49] = biological target: COQ8A (human) (UniProt Q8NI60)
[50] = biological target: NDUFA6 (human) (UniProt P56556)
[51] = biological target: CPOX (human) (UniProt P36551)
[52] = biological target: OXCT1 (human) (UniProt P55809)
[53] = biological target: PET112 (human) (UniProt O75879)
[54] = biological target: PTPMT1 (human) (UniProt Q8WUK0)
[55] = biological target: CLIC4 (human) (UniProt Q9Y696)
[56] = biological target: TST (human) (UniProt Q16762)
[57] = biological target: MRPS26 (human) (UniProt Q9BYN8)
[58] = biological target: NDUFS2 (human) (UniProt O75306)

K1AA0564 (human), sequence (A3KMH1 29-1905 limits assumed): as the sequence (A3KMH1 29-1905 limits assumed) above

Q: Which results are given for “FlagBirA-ClpP (Y118A) (from UniProt P06709 1-321; Q16740 57-277) (enzyme)”?
A: Log2 Fold change (vs control) [1]: -0.14 log2; Log2 Fold change (vs control) [2]: -1.44 log2; Log2 Fold change (vs control) [3]: 0.14 log2; Log2 Fold change (vs control) [4]: -0.33 log2; Log2 Fold change (vs control) [5]: -2.58 log2; Log2 Fold change (vs control) [6]: -0.01 log2; Log2 Fold change (vs control) [7]: 0.29 log2; Log2 Fold change (vs control) [8]: 0.21 log2; Log2 Fold change (vs control) [9]: 0.61 log2; Log2 Fold change (vs control) [10]: 0.38 log2; Log2 Fold change (vs control) [11]: 0.89 log2; Log2 Fold change (vs control) [12]: -2.32 log2; Log2 Fold change (vs control) [13]: 1.02 log2; Log2 Fold change (vs control) [14]: -0.38 log2; Log2 Fold change (vs control) [15]: -0.69 log2; Log2 Fold change (vs control) [16]: -1.46 log2; Log2 Fold change (vs control) [17]: -0.21 log2; Log2 Fold change (vs control) [18]: -0.03 log2; Log2 Fold change (vs control) [19]: -3.17 log2; Log2 Fold change (vs control) [20]: -1.46 log2; Log2 Fold change (vs control) [21]: 0.1 log2; Log2 Fold change (vs control) [22]: -0.45 log2; Log2 Fold change (vs control) [23]: -0.38 log2; Log2 Fold change (vs control) [24]: -0.29 log2; Log2 Fold change (vs control) [25]: -0.62 log2; Log2 Fold change (vs control) [26]: 0.09 log2; Log2 Fold change (vs control) [27]: 0.3 log2; Log2 Fold change (vs control) [28]: -0.92 log2; Log2 Fold change (vs control) [29]: 0.51 log2; Log2 Fold change (vs control) [30]: 0.26 log2; Log2 Fold change (vs control) [31]: -1.33 log2; Log2 Fold change (vs control) [32]: -2.58 log2; Log2 Fold change (vs control) [33]: -2.32 log2; Log2 Fold change (vs control) [34]: 0 log2; Log2 Fold change (vs control) [35]: -0.57 log2; Log2 Fold change (vs control) [36]: -0.5 log2; Log2 Fold change (vs control) [37]: -0.41 log2; Log2 Fold change (vs control) [38]: 0.76 log2; Log2 Fold change (vs control) [39]: 0.22 log2; Log2 Fold change (vs control) [40]: -0.28 log2; Log2 Fold change (vs control) [41]: -0.74 log2; Log2 Fold change (vs control) [42]: -0.47 log2; Log2 Fold change (vs control) [43]: -0.06 log2; Log2 Fold change (vs control) [44]: -3.17 log2; Log2 Fold change (vs control) [45]: 0.15 log2; Log2 Fold change (vs control) [46]: -0.1 log2; Log2 Fold change (vs control) [47]: -3 log2; Log2 Fold change (vs control) [48]: -0.17 log2; Log2 Fold change (vs control) [49]: -0.67 log2; Log2 Fold change (vs control) [50]: 0.44 log2; Log2 Fold change (vs control) [51]: 0.88 log2; Log2 Fold change (vs control) [52]: -0.95 log2; Log2 Fold change (vs control) [53]: -0.3 log2; Log2 Fold change (vs control) [54]: -0.04 log2; Log2 Fold change (vs control) [55]: -2.81 log2; Log2 Fold change (vs control) [56]: -0.51 log2; Log2 Fold change (vs control) [57]: -0.52 log2; Log2 Fold change (vs control) [58]: 0.1 log2
